Legend:
[1] = test system: C[C@@H](N)C(=O)N[C@H](C)C(=O)O; assay: purified protein; details: pH 8.5; 37.0 °C
[2] = test system: CC(=O)N[C@H]1[C@@H](OP(=O)(O)OP(=O)(O)OC[C@H]2O[C@@H](n3ccc(=O)[nH]c3=O)[C@H](O)[C@@H]2O)O[C@H](CO)[C@@H](O)[C@@H]1O[C@H](C)C(=O)N[C@@H](C)C(=O)N[C@H](CCC(=O)N[C@@H](CCC[C@@H](N)C(=O)O)C(=O)O)C(=O)O; assay: purified protein; details: pH 8.5; 37.0 °C

Substance: MurF (Mycobacterium tuberculosis H37Rv)
- Km [1]: 78.1 ± 0.2 µM
- kcat/Km [1]: 18100 ± 300 M⁻¹ s⁻¹
- Km [2]: 64.5 ± 0.2 µM
- kcat/Km [2]: 21700 ± 200 M⁻¹ s⁻¹
